Reference: publication PMC2814163 (Biochemistry, 2010)
Changes are numbered by the printed parent chain. Where two headings read alike, the source gives them in different places.

B1: Dom1-3His (extracytoplasmic domains 1-3 of the bovine CI-MPR, residues 1-432, C-terminal His6) (domain or fragment, UniProt P08169 45-476, looked up)
chain: AAGTQGAEFPELCSYTWEAVDTKNNMLYKINICGNMGVAQCGPSSAVCMHDLKTDSFHSVGDSLLKTASRSLLEFNTTVNCKQQNHKIQSSITFLCGKTLGTPEFVTATDCVHYFEWRTTAACKKNIFKANKEVPCYAFDRELKKHDLNPLIKTSGAYLVDDSDPDTSLFINVCRDIEVLRASSPQVRVCPTGAAACLVRGDRAFDVGRPQEGLKLVSNDRLVLSYVKEGAGQPDFCDGHSPAVTITFVCPSERREGTIPKLTAKSNCRFEIEWVTEYACHRDYLESRSCSLSSAQHDVAVDLQPLSRVEASDSLFYTSEADEYTYYLSICGGSQAPICNKKDAAVCQVKKADSTQVKVAGRPQNLTLRYSDGDLTLIYFGGEECSSGFQRMSVINFECNQTAGNNGRGAPVFTGEVDCTYFFTWDTKYACV
B2: Dom1-3HisK98A (domain or fragment, bovine, UniProt P08169 45-476, looked up)
chain: B1 chain with K98A
B3: Dom1-3HisK23A (domain or fragment, bovine, UniProt P08169 45-476, looked up)
chain: B1 chain with K23A
B4: Dom1-3HisR118A (domain or fragment, bovine, UniProt P08169 45-476, looked up)
chain: B1 chain with R118A
B5: Dom1-3HisK125A (domain or fragment, bovine, UniProt P08169 45-476, looked up)
chain: B1 chain with K125A
B6: Dom1-3HisK53A (domain or fragment, bovine, UniProt P08169 45-476, looked up)
chain: B1 chain with K53A
B7: Dom1-3HisK82A (domain or fragment, bovine, UniProt P08169 45-476, looked up)
chain: B1 chain with K82A
B8: Dom1-3HisK132A (domain or fragment, bovine, UniProt P08169 45-476, looked up)
chain: B1 chain with K132A
B9: Dom1-3HisK215A (domain or fragment, bovine, UniProt P08169 45-476, looked up)
chain: B1 chain with K215A
B10: human β-glucuronidase (enzyme, UniProt P08236 23-651, looked up)
chain: LQGGMLYPQESPSRECKELDGLWSFRADFSDNRRRGFEEQWYRRPLWESGPTVDMPVPSSFNDISQDWRLRHFVGWVWYEREVILPERWTQDLRTRVVLRIGSAHSYAIVWVNGVDTLEHEGGYLPFEADISNLVQVGPLPSRLRITIAINNTLTPTTLPPGTIQYLTDTSKYPKGYFVQNTYFDFFNYAGLQRSVLLYTTPTTYIDDITVTTSVEQDSGLVNYQISVKGSNLFKLEVRLLDAENKVVANGTGTQGQLKVPGVSLWWPYLMHERPAYLYSLEVQLTAQTSLGPVSDFYTLPVGIRTVAVTKSQFLINGKPFYFHGVNKHEDADIRGKGFDWPLLVKDFNLLRWLGANAFRTSHYPYAEEVMQMCDRYGIVVIDECPGVGLALPQFFNNVSLHHHMQVMEEVVRRDKNHPAVVMWSVANEPASHLESAGYYLKMVIAHTKSLDPSRPVTFVSNSNYAADKGAPYVDVICLNSYYSWYHDYGHLELIQLQLATQFENWYKKYQKPIIQSEYGAETIAGFHQDPPLMFTEEYQKSLLEQYHLGLDQKRRKYVVGELIWNFADFMTEQSPTRVLGNKKGIFTRQRQPKSAAFLLRERYWKIANETRYPHSVAKSQCLENSLFT
modifications: mannose 6-phosphate on its glycans (Man-6-P-containing lysosomal enzyme; nonphosphorylated enzyme removed)
B11: bovine prothrombin (natural protein)
chain: not shown
modifications: plasma-purified zymogen; gamma-carboxyglutamate in Gla domain, N-glycosylated, disulfides (by convention, not given)

How the values were obtained:
Experiment in all cases: SPR
[1] = target: human prothrombin (human, plasma-purified zymogen; gamma-carboxyglutamate in Gla domain, N-glycosylated, disulfides (by convention, not given))
[2] = target: B10
[3] = target: B10; remark: listed apart in the source
[4] = target: soluble form of the cation-independent mannose 6-phosphate receptor isolated from fetal bovine serum (bovine, UniProt P08169 45-2313)
[5] = target: B1

Binder | Kd [3] [nM] | further results
B1 |  | Kd [1]: > 2500 nM; Kd [2]: 10 ± 2 nM
B2 | 17 ± 1 | 
B3 | 14 ± 1 | 
B4 | 12 ± 1 | 
B5 | 26 ± 2 | 
B6 | 17 ± 2 | 
B7 | 17 ± 2 | 
B8 | 35 ± 4 | 
B9 | 18 ± 2 | 
B10 |  | Kd [4]: 22 ± 3 nM
B11 |  | Kd [5]: > 2500 nM
